Source: the supplement of paper PMC10567573
± gives the standard deviation.

Experiment: protein stability index of a GFP-peptide fusion (GPS, HEK-293T) (PSI 1-6); higher = more stable
Settings: c terminus: a fixed tail appended
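Also: 24-mer peptide tiles fused after GFP, lentivirally expressed, FACS-sorted into six equal bins by GFP/DsRed ratio, decoded by Illumina sequencing, PSI is the read-weighted mean bin number.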

| Sequence | protein stability index (treatment: DMSO) | protein stability index (treatment: MLN4924 1 uM, 8 h) |
| --- | --- | --- |
| CIDFNKNLNEDDTFLVFSKAELGA | 2.88 ± 0.63 | 2.81 ± 0.24 |
| HWNGRHKPWDFPSVHNDLWESWFV [GLT8D2] | 2.28 ± 0.58 | 2.54 ± 0.52 |
| DHPGIHEPLEPEVKYVGNMHGNEA [CPN1] | 4.98 ± 0.56 | 5.08 ± 0.19 |
| LETEQGKPFVSVFRHLRLQYIISD [GMCL1] | 2.21 ± 0.56 | 2.05 ± 0.33 |
| KLLHIYYQNSIDDRLLVERIFAQY [PDS5B] | 2.68 ± 0.63 | 3.39 ± 0.59 |
| YEPLLSRVQAALVWERPARSALWC [RETREG3] | 2.39 ± 0.53 | 2.12 ± 0.22 |
| HQPPQAGAGDVVLLQRELAQEDSL [LYSMD4] | 5.09 ± 0.13 | 5.04 ± 0.15 |
| FSDLNSTRGDADMYDLPKKEDALL [EMD] | 4.77 ± 0.24 | 4.9 ± 0.05 |
| SGGRGPQGDKAIREQGPREQEPEL [PBXIP1] | 5.44 ± 0.19 | 5.5 ± 0.25 |
| EEEISETGELVGPFVSAMPTPMPH [ZBED2] | 5.1 ± 0.2 | 5.17 ± 0.15 |
| KRPAWGSRRFEAVGWWALLALVTL [POMT2] | 2.64 ± 0.71 | 2.29 ± 0.24 |
| AKKLPPVQESQSERLQAAGTDSAG [ELOA2] | 5.2 ± 0.18 | 5.09 ± 0.24 |
| GSTLIFYKYCDHENAAFKDVALVL [TOR1AIP2] | 2.43 ± 0.59 | 2.58 ± 0.73 |
| SLALVQNGDVSAPSAILRTPESTK [ANKRD40] | 4.07 ± 0.36 | 4.06 ± 0.17 |
| AELQAELLHSQARLAELEAQVRKL [FBF1] | 4.29 ± 0.21 | 4.26 ± 0.092 |
| EVREPALRPAKRELRGAEPGRPAR [SPSB4] | 4.48 ± 0.39 | 4.9 ± 0.22 |
| FFMTATQYFTNRLDMSQNVSLVTA [SLC29A1] | 3.04 ± 0.4 | 2.92 ± 0.47 |
| NVHTGEFRNCGACVTLMQGHEGSV [WDR88] | 2.35 ± 0.5 | 2.17 ± 0.2 |
| DLGLAPRELAERGVRIVSRGRTQL [PCDHGA10] | 3.75 ± 0.16 | 3.81 ± 0.25 |
| MGQHISLAPIHKLEEALYEYQPLQ [MNAT1] | 3 ± 0.29 | 3 ± 0.048 |
| TLWDVFGANKEVQELLERGLLQLD [RSAD1] | 2.33 ± 0.25 | 2.64 ± 0.11 |
| DSHVSSCSEDWVGYQRKCYFISTV [CD69] | 2.46 ± 0.88 | 2.65 ± 0.6 |

| Sequence | protein stability index (treatment: DMSO) | protein stability index (treatment: MLN4924 1 uM, 8 h) |
| --- | --- | --- |
| AKAQVRKAVQYEEKNPCRTLCCFC [STX11] | 2.97 ± 0.24 | 3.36 ± 0.54 |
| DMIYVSGGFDGSRRHTSMERYDPN [KLHL12] | 3.85 ± 0.15 | 4 ± 0.3 |
| TYEPFCKVPVITSSKEEQKLIATS [KCTD10] | 4.27 ± 0.2 | 4.16 ± 0.37 |
| EVLDGVEDAEGEEEEEEEEEEEDD [FKBP8] | 5.46 ± 0.38 | 5.69 ± 0.23 |
| GETDEVTKTEDRELVLRKDCPKIV [ZSCAN9] | 5.48 ± 0.14 | 5.44 ± 0.24 |
| TKLSLLAIHGYTVWAHNLIAIARL [FBXO33] | 3.19 ± 0.36 | 3.22 ± 0.23 |
| GRLYVHPDSPATGAHWMRQLVSFQ [TBX5] | 2.32 ± 0.26 | 2.34 ± 0.2 |
| HSIALSTFASLIGPFGGFFASGFK [CDS1] | 2.57 ± 0.61 | 2.64 ± 0.69 |
| AKNYIWALSEILRIGKRPDLLTFV [NEUROD6] | 2.53 ± 0.52 | 2.69 ± 0.92 |
| FEGMAFLETEQGKPFVSVFRHLRL [GMCL1] | 2.66 ± 0.58 | 2.25 ± 0.31 |
| RAHPPQRPASSGGAHTLVNHGYAE [KCNA3] | 4.12 ± 0.13 | 3.94 ± 0.3 |
| SAILQFPSTLGRCKAFSTCVSHLI [OR10K2] | 2.5 ± 0.55 | 2.59 ± 0.3 |
| KKAEKKLEENPYDLDAWSILIREA [CSTF3] | 3.19 ± 0.36 | 3.26 ± 0.41 |
| MDMDQDSEEEKELYLNLALHLASD [PDS5B] | 3.82 ± 0.23 | 4.04 ± 0.081 |
| QNKAQRQKDLIMKVENLTLKNHFQ [TAF7L] | 3.08 ± 0.28 | 3.1 ± 0.13 |
| ERHTMDLTVEGFQSWMWRGLTFLL [TMEM120A] | 2.11 ± 0.41 | 2.28 ± 0.092 |
| DPGLGEGPALWLRSTCVYVCALSA [PLEKHN1] | 2.55 ± 0.045 | 2.09 ± 0.38 |
| PVQELPPSLRAPPPGGWPLQPRVQ [ZMAT5] | 4.02 ± 0.39 | 4.18 ± 0.25 |
| ANWQPKVAPATWSAGVPPSAPLQG [SNAP91] | 4 ± 0.098 | 3.85 ± 0.25 |
| GSGADRIYDLNIPAFVKFAYVAER [NCK2] | 2.35 ± 0.29 | 2.36 ± 0.13 |
| SRRFEAVGWWALLALVTLLSFATR [POMT2] | 2.29 ± 0.28 | 2.09 ± 0.33 |
| EPPKPTFPAYTQSTASTTSTTNST [ZNF207] | 5.39 ± 0.3 | 5.04 ± 0.21 |
